Source: US20220074941A1, “HSP90 COMBINATION THERAPY” (Sloan-Kettering Institute for Cancer Research, priority 2011, published 2022)

Tests used:
[1] = system: Hsp90 complexes in K562 cell extract; experiment: Nano-LC-MS/MS of PU-beads pull-downs; format: binding; conditions: protein identified in PU-beads pull-down of K562 cell extract, QSTAR-Elite QTof MS
Experimental: Protein cargo isolated from cell lysate with PU-beads or control-beads was subjected to proteomic analysis by nano liquid chromatography coupled to tandem mass spectrometry (nano LC-MS/MS). Initial protein identification was performed using the Mascot search engine, and was further evaluated using Scaffold Proteome Software (Tables 5a-d).
(§1) Lysates prepared as mentioned above were first pre-cleaned by incubation with control beads overnight at 4° C. […] Beads were washed with lysis buffer, proteins eluted by boiling in 2% SDS, separated on a denaturing gel and Coomassie stained according to manufacturer's procedure (Biorad). […] Analyses of the batch purified pools were done using a QSTAR-Elite hybrid quadrupole time-of-flight mass spectrometer (QTof MS) (AB/MDS Sciex), equipped with a nano spray ion source. Peptide mixtures (in 20 μL) are loaded onto a trapping guard column (0.3×5-mm PepMap C18 100 cartridge from LC Packings) using an Eksigent nano MDLC system (Eksigent Technologies, Inc) at a flow rate of 20 μL/min. […] Electrospray ionization (ESI) needle voltage was set at about 1800 V. The mass analyzer is operated in automatic, data-dependent MS/MS acquisition mode, with the threshold set to 10 counts per second of doubly or triply charged precursor ions selected for fragmentation scans. Survey scans of 0.25 sec are recorded from 400 to 1800 amu; up to 3 MS/MS scans are then collected sequentially for the selected precursor ions, recording from 100 to 1800 amu. The collision energy is automatically adjusted in accordance with the m/z value of the precursor ions selected for MS/MS. Selected precursor ions are excluded from repeated selection for 60 sec after the end of the corresponding fragmentation duty cycle. […] One missed tryptic cleavage site was allowed, precursor ion mass tolerance=0.4 Da fragment ion mass tolerance=0.4 Da, protein modifications were allowed for Met-oxide, Cys-acrylamide and N-terminal acetylation. MudPit scoring was typically applied with ‘require bold red’ activated, and using significance threshold score p<0.05. Unique peptide counts (or ‘spectral counts’) and percent sequence coverages for all identified proteins were exported to Scaffold Proteome Software (version 2_06_01, www.proteomesoftware.com) for further bioinformatic analysis (Table 5a). Using output from Mascot, Scaffold validates, organizes, and interprets mass spectrometry data, allowing more easily to manage large amounts of data, to compare samples, and to search for protein modifications.

[2] = system: Hsp90 complexes in Mia-PaCa-2 cell extract; experiment: Nano-LC-MS/MS of PU-beads pull-downs; format: binding, human; conditions: protein identified in PU-beads pull-down of Mia-PaCa-2 cell extract; QSTAR-Elite QTof MS
Experimental: as §1

B1: KIAA1468 (protein, UniProt Q9P260 2-1216, looked up)
RAB11-binding protein RELCH: AAMAPGGSGSGGGVNPFLSDSDEDDDEVAATEERRAVLRLGAGSGLDPGSAGSLSPQDPVALGSSARPGLPGEASAAAVALGGTGETPARLSIDAIAAQLLRDQYLLTALELHTELLESGRELPRLRDYFSNPGNFERQSGTPPGMGAPGVPGAAGVGGAGGREPSTASGGGQLNRAGSISTLDSLDFARYSDDGNRETDEKVAVLEFELRKAKETIQALRANLTKAAEHEVPLQERKNYKSSPEIQEPIKPLEKRALNFLVNEFLLKNNYKLTSITFSDENDDQDFELWDDVGLNIPKPPDLLQLYRDFGNHQVTGKDLVDVASGVEEDELEALTPIISNLPPTLETPQPAENSMLVQKLEDKISLLNSEKWSLMEQIRRLKSEMDFLKNEHFAIPAVCDSVQPPLDQLPHKDSEDSGQHPDVNSSDKGKNTDIHLSISDEADSTIPKENSPNSFPRREREGMPPSSLSSKKTVHFDKPNRKLSPAFHQALLSFCRMSADSRLGYEVSRIADSEKSVMLMLGRCLPHIVPNVLLAKREELIPLILCTACLHPEPKERDQLLHILFNLIKRPDDEQRQMILTGCVAFARHVGPTRVEAELLPQCWEQINHKYPERRLLVAESCGALAPYLPKEIRSSLVLSMLQQMLMEDKADLVREAVIKSLGIIMGYIDDPDKYHQGFELLLSALGDPSERVVSATHQVFLPAYAAWTTELGNLQSHLILTLLNKIEKLLREGEHGLDEHKLHMYLSALQSLIPSLFALVLQNAPFSSKAKLHGEVPQIEVTRFPRPMSPLQDVSTIIGSREQLAVLLQLYDYQLEQEGTTGWESLLWVVNQLLPQLIEIVGKINVTSTACVHEFSRFFWRLCRTFGKIFTNTKVKPQFQEILRLSEENIDSSAGNGVLTKATVPIYATGVLTCYIQEEDRKLLVGFLEDVMTLLSLSHAPLDSLKASFVELGANPAYHELLLTVLWYGVVHTSALVRCTAARMFELTLRGMSEALVDKRVAPALVTLSSDPEFSVRIATIPAFGTIMETVIQRELLERVKMQLASFLEDPQYQDQHSLHTEIIKTFGRVGPNAEPRFRDEFVIPHLHKLALVNNLQIVDSKRLDIATHLFEAYSALSCCFISEDLMVNHFLPGLRCLRTDMEHLSPEHEVILSSMIKECEQKVENKTVQEPQGSMSIAASLVSEDTKTKFLNKMGQLTTSGAMLANVFQRKK
Question: With B1 as the molecule, how does the “Number of Assigned Spectra, K562 Prep 1” value [1] read?
Answer: 0

Question: What about the “Number of Assigned Spectra, K562 Prep 2” value [1] of the same molecule?
Answer: 0

Question: What about the “Number of Assigned Spectra, Mia-Paca 2” value [2] of the same molecule?
Answer: 3

B2: TRIM56 (protein, UniProt Q9BRZ2 1-755, looked up)
E3 ubiquitin-protein ligase …: MVSHGSSPSLLEALSSDFLACKICLEQLRAPKTLPCLHTYCQDCLAQLADGGRVRCPECRETVPVPPEGVASFKTNFFVNGLLDLVKARACGDLRAGKPACALCPLVGGTSTGGPATARCLDCADDLCQACADGHRCTRQTHTHRVVDLVGYRAGWYDEEARERQAAQCPQHPGEALRFLCQPCSQLLCRECRLDPHLDHPCLPLAEAVRARRPGLEGLLAGVDNNLVELEAARRVEKEALARLREQAARVGTQVEEAAEGVLRALLAQKQEVLGQLRAHVEAAEEAARERLAELEGREQVARAAAAFARRVLSLGREAEILSLEGAIAQRLRQLQGCPWAPGPAPCLLPQLELHPGLLDKNCHLLRLSFEEQQPQKDGGKDGAGTQGGEESQSRREDEPKTERQGGVQPQAGDGAQTPKEEKAQTTREEGAQTLEEDRAQTPHEDGGPQPHRGGRPNKKKKFKGRLKSISREPSPALGPNLDGSGLLPRPIFYCSFPTRMPGDKRSPRITGLCPFGPREILVADEQNRALKRFSLNGDYKGTVPVPEGCSPCSVAALQSAVAFSASARLYLINPNGEVQWRRALSLSQASHAVAALPSGDRVAVSVAGHVEVYNMEGSLATRFIPGGKASRGLRALVFLTTSPQGHFVGSDWQQNSVVICDGLGQVVGEYKGPGLHGCQPGSVSVDKKGYIFLTLREVNKVVILDPKGSLLGDFLTAYHGLEKPRVTTMVDGRYLVVSLSNGTIHIFRVRSPDS
Question: Which “Number of Assigned Spectra, K562 Prep 1” value [1] does the source give for B2 here?
Answer: 0

Question: What about the “Number of Assigned Spectra, K562 Prep 2” value [1] of the same molecule?
Answer: 0

Question: And the “Number of Assigned Spectra, Mia-Paca 2” value [2]?
Answer: 3

B3: ZG16B (protein, UniProt Q96DA0 17-172, looked up)
Pancreatic adenocarcinoma …: GKMYGPGGGKYFSTTEDYDHEITGLRVSVGLLLVKSVQVKLGDSWDVKLGALGGNTQEVTLQPGEYITKVFVAFQAFLRGMVMYTSKDRYFYFGKLDGQISSAYPSQEGQVLVGIYGQYQLLGIKSIGFEWNYPLEEPTTEPPVNLTYSANSPVGR
Question: For B3, which “Number of Assigned Spectra, K562 Prep 1” value [1] is on record?
Answer: 0

Question: And the “Number of Assigned Spectra, K562 Prep 2” value [1]?
Answer: 3

Question: What about the “Number of Assigned Spectra, Mia-Paca 2” value [2] of the same molecule?
Answer: 0

B4: HEATR2 (protein, UniProt Q86Y56 2-855, looked up)
Dynein axonemal assembly …: AALGVAEAVAAPHPAEGAETAEAVELSRALSRLLPGLEADSKPGRRRALEALRRALEEPGPAADPTAFQGPWARLLLPRLLRCLSDPAEGCRALAVHLLDLGLRRAARPRDALPRLLPALAARLAGPVPARRPPEACEELRLALVQLLGLAVDLCGAALAPHLDDALRALRCSLLDPFAAVRRESCSCAAALAQATPDHFHMQSESLIGPLMQTISHQHWKVRVAAIEATGAVIHFGNGKSVDDVLSHFAQRLFDDVPQVRRAVASVVGGWLLCLRDRYSFFHKLIPLLLSSLNDEVPEVRQLAASLWEDVGLQWQKENEEDLKDKLDFAPPTPPHYPPHERRPVLGCRELVFRNLSKILPALCHDITDWVVGTRVKSAQLLPVLLLHAEDHATQHLEVVLRTLFQACTDEEAAVVQSCTRSAELVGTFVSPEVFLKLILSTLKKTPSASGLLVLASAMRGCPREALQPHLAAIATELAQAHICQASENDLYLERLLLCVQALVSVCHEDCGVASLQLLDVLLTIVALAGATGLRDKAQETMDSLAMVEGVSSCQDLYRKHIGPLLERVTASHLDWTAHSPELLQFSVIVAQSGPALGEALPHVVPTLRACLQPSQDPQMRLKLFSILSTVLLRATDTINSQGQFPSYLETVTKDILAPNLQWHAGRTAAAIRTAAVSCLWALTSSEVLSAEQIRDVQETLMPQVLTTLEEDSKMTRLISCRIINTFLKTSGGMTDPEKLIRIYPELLKRLDDVSNDVRMAAASTLVTWLQCVKGANAKSYYQSSVQYLYRELLVHLDDPERAIQDAILEVLKEGSGLFPDLLVRETEAVIHKHRSATYCEQLLQHVQAVPATQ
Question: Which results are given for B4?
Answer: Number of Assigned Spectra, K562 Prep 1 [1]: 5; Number of Assigned Spectra, K562 Prep 2 [1]: 2; Number of Assigned Spectra, Mia-Paca 2 [2]: 11

B5: HYOU1 (protein, UniProt Q9Y4L1 33-999, looked up)
Hypoxia up-regulated protein 1: LAVMSVDLGSESMKVAIVKPGVPMEIVLNKESRRKTPVIVTLKENERFFGDSAASMAIKNPKATLRYFQHLLGKQADNPHVALYQARFPEHELTFDPQRQTVHFQISSQLQFSPEEVLGMVLNYSRSLAEDFAEQPIKDAVITVPVFFNQAERRAVLQAARMAGLKVLQLINDNTATALSYGVFRRKDINTTAQNIMFYDMGSGSTVCTIVTYQMVKTKEAGMQPQLQIRGVGFDRTLGGLEMELRLRERLAGLFNEQRKGQRAKDVRENPRAMAKLLREANRLKTVLSANADHMAQIEGLMDDVDFKAKVTRVEFEELCADLFERVPGPVQQALQSAEMSLDEIEQVILVGGATRVPRVQEVLLKAVGKEELGKNINADEAAAMGAVYQAAALSKAFKVKPFVVRDAVVYPILVEFTREVEEEPGIHSLKHNKRVLFSRMGPYPQRKVITFNRYSHDFNFHINYGDLGFLGPEDLRVFGSQNLTTVKLKGVGDSFKKYPDYESKGIKAHFNLDESGVLSLDRVESVFETLVEDSAEEESTLTKLGNTISSLFGGGTTPDAKENGTDTVQEEEESPAEGSKDEPGEQVELKEEAEAPVEDGSQPPPPEPKGDATPEGEKATEKENGDKSEAQKPSEKAEAGPEGVAPAPEGEKKQKPARKRRMVEEIGVELVVLDLPDLPEDKLAQSVQKLQDLTLRDLEKQEREKAANSLEAFIFETQDKLYQPEYQEVSTEEQREEISGKLSAASTWLEDEGVGATTVMLKEKLAELRKLCQGLFFRVEERKKWPERLSALDNLLNHSSMFLKGARLIPEMDQIFTEVEMTTLEKVINETWAWKNATLAEQAKLPATEKPVLLSKDIEAKMMALDREVQYLLNKAKFTKPRPRPKDKNGTRAEPPLNASASDQGEKVIPPAGQTEDAEPISEPEKVETGSEPGDTEPLELGGPGAEPEQKEQSTGQKRPLKNDEL
Question: How did the “Number of Assigned Spectra, K562 Prep 1” value [1] turn out when B5 was run?
Answer: 0

Question: And the “Number of Assigned Spectra, K562 Prep 2” value [1]?
Answer: 3

Question: What about the “Number of Assigned Spectra, Mia-Paca 2” value [2] of the same molecule?
Answer: 0
